Substrate in series [1]: O=[N+]([O-])c1ccc(O[C@@H]2O[C@H](CO)[C@@H](O)[C@H](O)[C@H]2O)cc1
The series is described as follows: purified protein. The note with it: citrate phosphate buffer pH 5, 0.1-6 mM substrate.

Substrate in series [2]: O=[N+]([O-])c1ccc(O[C@@H]2O[C@@H](CO)[C@H](O)[C@H]2O)cc1
The series is described as follows: purified protein. The note with it: pH 5.0, 40 °C, 10 min, 0.1-2.0 mM substrate, 40.0 °C.

Where a chain is given by its changes, count along the chain named. Numbers in names are those of the source.

B1: rPoAbf (recombinant α‐L‐arabinofuranosidase from Pleurotus ostreatus) (Pleurotus sp. 'Florida') (protein)
chain: QTVSVSATASHPIPTTLWGQMFEDISHSGDGGLYAELLQNRALQQVTPNTAASLNAWSAINGGQISVVADSVPVSNSLPNSLRFTVPAGRTGQVGFANSGFFGMKIVASSTYKGSFFVKFPTASSFTGNLIVGLRTTSGSTIVSQTVPIRGASTSWQQISVSLTPRTTPPSTDNQFFVTIDGAAASGQTINFAMFSLFPPTFKNRANGMRDDIATALAEMKPKFFRFPGGNNLEGQTVPTRWQWNATIGSLLDRPGRAGDWGYINTDGLGLLEYLLFCEDLGMEPIMAVWAGFALGGTSVAQNGLQPYIQQAIDQINFVIGDPATSAPAARRAALGRAQPFKLTYVEIGNEDFFASDTYTYRWPAFVNALRGAFPNLKFIATSNINSPVLSPNPAQWDHHVYQTPTWFAQNSFFYDDMPRNGVTFFEGEYAAISTNPNDIFGSPANGRLTFSTMQSASGEAAYMIGMERNSDIVFAASYAPLLGHVAGSQWTPNLIAFDTGNVYRSASYFVQKLFSTNMGNEYIPSTLPSRTGTAFWGVTRNTATGEIIIKVSNTVAAQANLTFVLPFANVATSGSLQVLTGAATASNSPTTPSALAPATRTITTGKTFTFAAAGFSVNVITIKAS
Regarding B1, in the series “purified protein [1]”, the Km was found to be 4070 ± 150 µM and the kcat was 0.183 ± 0.01 s⁻¹. Besides, in “purified protein [2]”, the Km amounted to 640 ± 110 µM and the kcat is 3,010 ± 145 Min^−1.

B2: rPoAbf (recombinant α‐L‐arabinofuranosidase from Pleurotus ostreatus) (Pleurotus sp. 'Florida'; S160G) (protein)
chain: B1 chain with S140G
On to B2, for which the figures for the Km in the series “purified protein [1]” and in the series “purified protein [2]” were 5030 ± 120 µM and 890 ± 190 µM, respectively. In addition, the kcat is 0.383 ± 0.015 s⁻¹ in “purified protein [1]” and 2,590 ± 165 Min^−1 in “purified protein [2]”.

What is called Km is the substrate concentration at which the rate is half of its maximum. The term kcat denotes the maximal rate divided by the concentration of active sites.
